Test results as given in CN111434682A.
“And” between values parts separate entries of the source, which are not always exact repeats. Equal values may be shown once. Read-outs that look alike come from different tables or passages of the source.

B1: 抗H7N9全人源单克隆抗体7T33 (antibody, V domains shown)
VH: QVQLVESGAEVKKPGASVKVSCKASGTIFYSTEINWVRQATGQGLEWMGWMNPESGEYGFAQKFQGRVTMTRNTSITTAYMELSSLTSEDTAVYYCAYGNAECSAGGSCTNWFGEPWGQGTLVTVSS
VL: SSELTQDPAVSVALGQTVRITCQGDRLRSTTASWYQQKPGQAPVLVIYGKNNRPSGIPDRFSGSSSGNTASLTITGAQAEDEADYYCNSREYSGTHLVFGGGTKLTVLV

Legend:
[1] = target: H7N9病毒的HA蛋白(购自ACROBiosystems) (H7N9 influenza virus); assay: ELISA, HA coated at 100 ng/well, negative control, anti-human IgG-HRP
[2] = target: H7N9病毒的HA蛋白(购自ACROBiosystems) (H7N9 influenza virus)
[3] = target: H7N9病毒的HA蛋白(购自ACROBiosystems) (H7N9 influenza virus); remark: listed apart in the source
[4] = target: H7N9病毒 A/Anhui/1/2013 (H7N9 influenza virus A/Anhui/1/2013); assay: cell-based or functional assay

Molecule | 450nm absorbance [1] | 450nm absorbance [2] | Kd [3] | IC50, micro-neutralisation ELISA on MDCK cells infected with H7N9 virus [4]
阴性对照 (negative control of the ELISA) | 0.0675 OD450 and 0.0554 OD450 | – | – | –
B1 | – | 1.53 OD450 and 1.86 OD450 and 1.8 OD450 | 5.43 nM | 12.8 µg/mL
